Test results taken from patent US20150258192A1, “COMPOSITIONS AND METHODS FOR PREVENTING OR TREATING CHRONIC LUNG ALLOGRAFT DYSFUNCTION (CLAD) AND IDIOPATHIC PULMONARY FIBROSIS (IPF)” (priority 2014, published 2015).
No end group written: not given here.

Legend:
Test in all cases: Kinase Profiling Assay
Assay type in all cases: biochemical
Conditions in all cases: peptide 100 μM
PhKγ2(h) = target: T1, PhKγ2(h) (Homo sapiens, UniProt P15735)
T1 sequence (P15735 1-406): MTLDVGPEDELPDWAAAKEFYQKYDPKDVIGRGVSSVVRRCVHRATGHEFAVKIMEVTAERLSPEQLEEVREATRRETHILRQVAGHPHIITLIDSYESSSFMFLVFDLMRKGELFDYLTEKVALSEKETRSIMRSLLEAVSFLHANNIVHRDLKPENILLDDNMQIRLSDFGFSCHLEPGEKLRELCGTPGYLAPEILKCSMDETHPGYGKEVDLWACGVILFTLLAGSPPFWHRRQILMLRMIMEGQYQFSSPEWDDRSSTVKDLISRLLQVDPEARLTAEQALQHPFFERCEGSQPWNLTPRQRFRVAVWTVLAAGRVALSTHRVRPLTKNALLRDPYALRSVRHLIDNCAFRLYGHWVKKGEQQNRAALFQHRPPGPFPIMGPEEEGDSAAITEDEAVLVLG
How it was run: (§1)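 Duplicate wells; [radiolabeled] ATP phosphate onto cationic substrate; filter capture (negatively charged membrane); scintillation count; % of 100% activity control. Selectivity screen of MK2 peptide inhibitors, 266 human kinases.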

Hck(h) = target: T2, Hck(h) (Homo sapiens, UniProt P08631)
T2 construct: purchased Millipore
T2 sequence (P08631 whole entry): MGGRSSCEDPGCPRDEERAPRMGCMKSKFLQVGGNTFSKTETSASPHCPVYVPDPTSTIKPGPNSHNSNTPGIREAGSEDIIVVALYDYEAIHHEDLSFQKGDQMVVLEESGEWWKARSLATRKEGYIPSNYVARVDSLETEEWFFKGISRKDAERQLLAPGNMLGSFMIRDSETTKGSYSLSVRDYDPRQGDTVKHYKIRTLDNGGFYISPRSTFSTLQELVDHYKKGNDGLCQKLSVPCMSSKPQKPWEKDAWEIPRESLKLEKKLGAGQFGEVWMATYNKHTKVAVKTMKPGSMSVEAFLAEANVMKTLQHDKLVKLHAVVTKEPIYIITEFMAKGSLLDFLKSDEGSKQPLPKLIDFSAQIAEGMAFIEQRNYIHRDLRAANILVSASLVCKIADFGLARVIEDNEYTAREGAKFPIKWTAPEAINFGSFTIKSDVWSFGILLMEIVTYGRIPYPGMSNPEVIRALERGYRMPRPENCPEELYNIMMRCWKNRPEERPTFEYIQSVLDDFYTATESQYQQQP
How it was run: as §1

IR(h), activated = target: T3, IR(h), activated (Homo sapiens, UniProt P06213)
T3 construct: purchased Millipore
T3 sequence (P06213 1005-1310 limits assumed): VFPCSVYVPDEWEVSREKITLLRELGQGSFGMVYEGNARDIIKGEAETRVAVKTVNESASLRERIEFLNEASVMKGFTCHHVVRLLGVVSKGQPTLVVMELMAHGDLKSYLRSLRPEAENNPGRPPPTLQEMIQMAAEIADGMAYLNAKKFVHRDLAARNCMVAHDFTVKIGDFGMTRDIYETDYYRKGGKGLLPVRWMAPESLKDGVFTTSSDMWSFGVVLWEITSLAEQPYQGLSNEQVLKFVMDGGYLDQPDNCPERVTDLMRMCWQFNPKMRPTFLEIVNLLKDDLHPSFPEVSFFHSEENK
How it was run: as §1

PrKX(h) = target: T4, PrKX(h) (Homo sapiens, UniProt P51817)
T4 sequence (P51817 1-358): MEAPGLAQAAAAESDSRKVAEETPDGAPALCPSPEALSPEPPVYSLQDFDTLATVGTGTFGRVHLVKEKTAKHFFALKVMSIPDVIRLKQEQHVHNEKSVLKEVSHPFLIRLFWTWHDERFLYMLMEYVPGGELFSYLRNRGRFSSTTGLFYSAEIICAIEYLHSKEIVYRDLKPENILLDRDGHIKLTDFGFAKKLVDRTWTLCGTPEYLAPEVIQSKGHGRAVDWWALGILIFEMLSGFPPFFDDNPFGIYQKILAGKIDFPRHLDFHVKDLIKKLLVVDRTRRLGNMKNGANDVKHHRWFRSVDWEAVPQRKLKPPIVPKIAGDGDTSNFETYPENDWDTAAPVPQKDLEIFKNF
How it was run: as §1

TBK1(h) = target: T5, TBK1(h) (Homo sapiens, UniProt Q9UHD2)
T5 construct: purchased Millipore
T5 sequence (Q9UHD2 1-729): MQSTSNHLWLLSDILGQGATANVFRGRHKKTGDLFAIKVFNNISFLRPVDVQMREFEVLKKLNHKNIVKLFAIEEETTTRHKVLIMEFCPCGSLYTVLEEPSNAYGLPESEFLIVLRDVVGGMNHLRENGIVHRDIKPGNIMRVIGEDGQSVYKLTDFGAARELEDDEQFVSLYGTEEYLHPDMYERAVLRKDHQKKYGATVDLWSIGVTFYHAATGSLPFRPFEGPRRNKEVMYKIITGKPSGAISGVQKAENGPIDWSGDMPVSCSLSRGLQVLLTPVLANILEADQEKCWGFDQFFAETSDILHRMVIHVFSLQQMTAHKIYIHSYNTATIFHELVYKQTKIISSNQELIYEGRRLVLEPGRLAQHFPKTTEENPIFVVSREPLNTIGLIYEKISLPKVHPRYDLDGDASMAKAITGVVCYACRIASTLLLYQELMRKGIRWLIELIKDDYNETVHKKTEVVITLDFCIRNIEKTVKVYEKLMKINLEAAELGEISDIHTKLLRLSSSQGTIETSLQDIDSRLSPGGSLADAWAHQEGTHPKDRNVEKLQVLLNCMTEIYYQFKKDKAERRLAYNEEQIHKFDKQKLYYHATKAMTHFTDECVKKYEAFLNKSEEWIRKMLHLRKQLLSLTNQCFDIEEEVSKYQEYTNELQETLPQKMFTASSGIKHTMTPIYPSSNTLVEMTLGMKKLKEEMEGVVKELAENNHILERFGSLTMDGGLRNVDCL
How it was run: as §1

Flt1(h) = Flt1(h) (Homo sapiens, UniProt P17948)
Flt1(h), sequence (P17948 27-1338): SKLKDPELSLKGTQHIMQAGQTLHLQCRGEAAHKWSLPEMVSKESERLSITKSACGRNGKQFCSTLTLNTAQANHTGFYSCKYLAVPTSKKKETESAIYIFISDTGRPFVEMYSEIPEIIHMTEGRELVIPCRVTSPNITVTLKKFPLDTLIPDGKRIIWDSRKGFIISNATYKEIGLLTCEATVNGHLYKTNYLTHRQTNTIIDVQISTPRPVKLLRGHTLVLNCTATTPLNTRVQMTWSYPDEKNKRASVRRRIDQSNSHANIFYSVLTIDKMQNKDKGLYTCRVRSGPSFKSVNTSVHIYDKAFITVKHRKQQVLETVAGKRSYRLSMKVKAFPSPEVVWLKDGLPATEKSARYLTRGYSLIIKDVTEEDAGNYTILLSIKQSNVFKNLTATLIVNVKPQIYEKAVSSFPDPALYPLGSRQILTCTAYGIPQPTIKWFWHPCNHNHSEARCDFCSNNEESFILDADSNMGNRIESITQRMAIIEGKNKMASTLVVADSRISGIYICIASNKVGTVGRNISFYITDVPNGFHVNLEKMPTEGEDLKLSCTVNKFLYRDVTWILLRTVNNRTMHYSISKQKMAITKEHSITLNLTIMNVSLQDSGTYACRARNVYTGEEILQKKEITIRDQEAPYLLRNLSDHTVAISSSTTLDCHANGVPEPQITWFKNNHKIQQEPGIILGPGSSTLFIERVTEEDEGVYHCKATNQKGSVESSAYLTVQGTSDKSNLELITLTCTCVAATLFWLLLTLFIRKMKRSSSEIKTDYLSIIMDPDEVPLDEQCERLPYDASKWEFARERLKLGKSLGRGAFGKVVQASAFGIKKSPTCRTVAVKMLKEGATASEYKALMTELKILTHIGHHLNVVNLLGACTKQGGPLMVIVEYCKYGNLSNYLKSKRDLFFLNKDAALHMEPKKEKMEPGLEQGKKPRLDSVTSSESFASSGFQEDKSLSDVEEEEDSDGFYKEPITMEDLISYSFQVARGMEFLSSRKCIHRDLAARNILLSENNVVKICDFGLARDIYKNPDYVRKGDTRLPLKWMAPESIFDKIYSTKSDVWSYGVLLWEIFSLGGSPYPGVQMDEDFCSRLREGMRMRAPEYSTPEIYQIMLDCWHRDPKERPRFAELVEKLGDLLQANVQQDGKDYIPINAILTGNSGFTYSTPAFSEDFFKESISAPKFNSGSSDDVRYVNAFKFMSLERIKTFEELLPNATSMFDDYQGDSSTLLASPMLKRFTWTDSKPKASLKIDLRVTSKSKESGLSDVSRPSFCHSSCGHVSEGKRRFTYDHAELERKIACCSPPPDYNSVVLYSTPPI
How it was run: as §1

MELK(h) = target: T6, MELK(h) (Homo sapiens, UniProt Q14680)
T6 construct: purchased Millipore
T6 sequence (Q14680 whole entry): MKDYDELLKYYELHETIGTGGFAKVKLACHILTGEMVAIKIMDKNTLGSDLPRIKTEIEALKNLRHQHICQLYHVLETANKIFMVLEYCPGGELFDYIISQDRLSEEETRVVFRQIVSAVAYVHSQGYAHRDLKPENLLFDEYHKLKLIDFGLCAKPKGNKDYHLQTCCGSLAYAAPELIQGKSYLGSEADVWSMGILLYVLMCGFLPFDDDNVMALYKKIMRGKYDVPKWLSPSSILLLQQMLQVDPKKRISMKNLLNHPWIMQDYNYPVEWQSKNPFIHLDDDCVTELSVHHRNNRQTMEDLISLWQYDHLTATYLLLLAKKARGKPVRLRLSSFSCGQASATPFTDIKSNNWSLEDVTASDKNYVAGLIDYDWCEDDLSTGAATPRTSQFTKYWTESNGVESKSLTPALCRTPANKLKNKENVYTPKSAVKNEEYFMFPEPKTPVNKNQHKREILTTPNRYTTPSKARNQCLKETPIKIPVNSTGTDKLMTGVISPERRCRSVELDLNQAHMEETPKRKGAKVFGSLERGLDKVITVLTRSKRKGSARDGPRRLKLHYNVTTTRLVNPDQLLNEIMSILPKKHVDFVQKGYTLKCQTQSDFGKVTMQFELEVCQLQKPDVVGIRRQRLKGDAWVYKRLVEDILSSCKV
How it was run: as §1

CSK(h) = CSK(h) (Homo sapiens, UniProt P41240)
CSK(h), sequence (P41240 whole entry): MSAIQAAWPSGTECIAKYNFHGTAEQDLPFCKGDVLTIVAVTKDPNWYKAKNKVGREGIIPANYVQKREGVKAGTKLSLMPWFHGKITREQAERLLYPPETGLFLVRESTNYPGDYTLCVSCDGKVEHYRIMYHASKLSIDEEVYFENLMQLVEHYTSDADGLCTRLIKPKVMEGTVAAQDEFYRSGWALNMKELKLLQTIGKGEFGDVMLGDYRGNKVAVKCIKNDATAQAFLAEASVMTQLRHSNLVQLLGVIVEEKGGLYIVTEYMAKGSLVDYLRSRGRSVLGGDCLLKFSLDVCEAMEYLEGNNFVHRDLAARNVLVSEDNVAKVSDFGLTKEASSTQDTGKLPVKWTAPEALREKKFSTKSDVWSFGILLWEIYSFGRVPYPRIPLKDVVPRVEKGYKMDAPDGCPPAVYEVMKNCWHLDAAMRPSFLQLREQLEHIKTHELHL
How it was run: as §1

Abl(T315I)(h) = Abl(T315I)(h) (Homo sapiens, UniProt P00519, T315I)
How it was run: as §1

NEK6(h) = target: T7, NEK6(h) (Homo sapiens, UniProt Q9HC98)
T7 construct: purchased Millipore
T7 sequence (Q9HC98 whole entry): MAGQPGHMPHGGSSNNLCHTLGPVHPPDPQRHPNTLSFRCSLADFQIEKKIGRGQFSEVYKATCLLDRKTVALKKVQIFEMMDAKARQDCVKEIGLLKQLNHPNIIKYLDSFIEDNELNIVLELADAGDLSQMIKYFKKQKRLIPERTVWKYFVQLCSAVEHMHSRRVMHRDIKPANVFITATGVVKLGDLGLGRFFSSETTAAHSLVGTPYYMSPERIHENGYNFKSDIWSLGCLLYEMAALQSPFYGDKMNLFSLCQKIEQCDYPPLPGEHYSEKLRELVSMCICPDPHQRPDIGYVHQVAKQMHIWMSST
How it was run: as §1

NEK7(h) = target: T8, NEK7(h) (Homo sapiens, UniProt Q8TDX7)
T8 construct: purchased Millipore
T8 sequence (Q8TDX7 whole entry): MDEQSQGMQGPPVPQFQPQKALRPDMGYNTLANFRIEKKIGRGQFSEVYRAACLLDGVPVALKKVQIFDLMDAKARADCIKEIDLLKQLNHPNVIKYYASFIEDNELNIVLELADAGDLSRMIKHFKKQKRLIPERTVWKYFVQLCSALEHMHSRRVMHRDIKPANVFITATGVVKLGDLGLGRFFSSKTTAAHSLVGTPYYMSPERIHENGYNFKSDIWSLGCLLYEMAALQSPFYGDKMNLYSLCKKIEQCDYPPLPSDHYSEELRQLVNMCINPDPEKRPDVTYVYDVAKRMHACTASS
How it was run: as §1

| Sequence | % activity (PhKγ2(h)) | % activity (Hck(h)) | % activity (IR(h), activated) | % activity (PrKX(h)) | % activity (TBK1(h)) | % activity (Flt1(h)) | % activity (MELK(h)) | % activity (CSK(h)) | % activity (Abl(T315I)(h)) | % activity (NEK6(h)) | % activity (NEK7(h)) |
| --- | --- | --- | --- | --- | --- | --- | --- | --- | --- | --- | --- |
| HRRIKAWLKKIKALARQLGVAA (Mammal) [MMI-0500] | 16% | 78% | 90% | 57% | 16% | 27% | 0% | 2% | 16% | 49% | 89% |
| YARAAARQARAKALNRQLGVA (Mammal) [MMI-0200] | 86% |  |  |  | 98% | 96% | 59% | 33% | 108% | 98% | 96% |
| YARAAARQARAKALARQLGVAA [MMI-0100] |  |  | 127% | 84% |  |  | 74% |  | 98% |  |  |
| FAKLAARLYRKALARQLGVAA [MMI-0300] | 46% | 72% | 79% | 61% | 37% | 69% | 16% | 49% | 97% | 82% | 84% |
| KAFAKLAARLYRKALARQLGVAA [MMI-0400] | 38% | 72% | 59% | 76% | 39% | 48% | 17% | 16% |  | 85% | 87% |
